Results on three molecules are retold here after patent CN106366186A (ATTOGEN BIOMEDICAL (SUZHOU) INC, dated 2017).

The target of assay [1] is His-HPV16 E7重组蛋白 (HPV16) (UniProt P03129). Nature of the assay: indirect ELISA, antibody 0.1μg/ml on 0.1μg/ml coat; threshold for a positive clone.
The target is the same in assay [2]. Description: ELISA, scFv 5μg/ml on 0.1μg/ml coated antigen, anti-Flag-HRP; selection threshold.
The target in another assay is T1, His-Vac (HPV16).
T1 peptide: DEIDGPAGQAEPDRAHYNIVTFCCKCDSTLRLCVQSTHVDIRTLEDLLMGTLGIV
Description: indirect ELISA on peptides.

Assay [3] addresses T2, 细胞内源的HPV16 E7蛋白 (CaSki, Siha cells, HPV16-positive cervical cells) (HPV16, UniProt P03129 1-98).
T2 construct: whole, on cells; Intracellular protein detected by immunocytochemistry in fixed, permeabilised cells; also called HPV16 E7内源蛋白
T2 sequence: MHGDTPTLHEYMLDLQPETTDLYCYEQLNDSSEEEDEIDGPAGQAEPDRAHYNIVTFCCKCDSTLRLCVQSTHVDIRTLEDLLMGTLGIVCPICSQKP
Description: immunocytochemistry, CaSki cells.

For assay [4], the target named is T3, 细胞内源的HPV18 E7蛋白 (HeLa, Siha cells) (HPV18, UniProt P06788 1-105).
T3 construct: whole, on cells; Intracellular protein detected by immunocytochemistry in fixed, permeabilised cells
T3 sequence: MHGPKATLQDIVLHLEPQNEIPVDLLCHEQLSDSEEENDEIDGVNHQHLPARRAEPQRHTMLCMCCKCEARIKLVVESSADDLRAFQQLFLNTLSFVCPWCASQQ
Description: immunocytochemistry, HeLa and Siha cells.

The next assay concerns the target T4, His-HPV18 E7重组蛋白 (HPV18, UniProt P06788 1-105).
T4 construct: also called His-HPV18 E7融合蛋白; not shown: His tag
T4 chain: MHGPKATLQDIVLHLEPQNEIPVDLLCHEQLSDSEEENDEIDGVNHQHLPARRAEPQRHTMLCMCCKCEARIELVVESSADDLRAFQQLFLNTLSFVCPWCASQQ
Description: indirect ELISA, 0.5μg/ml coat, antibody 1μg/ml.

B1: HPV16 E7兔单克隆抗体RAB-034 (antibody, from another filing, V domains shown)
VH: QSLEESGGRLVTPGTPLTLTCTVSGIDLSSYAMGWVRQAPGEGLDWIGSIGSSGRTYYANWAKGRFTISKTSSTTVDLKMTSLTTEDTATYFCARGVVNRSDIWGPGTLVTVSS
VL: DPMLTQTASSVSAAVGGTVTISCQSSQSVYDNNWLGWYQQKPGQPPKLLIYGASNLESGVPSRFKGSGSGTQFTLTISDVQCDDAATYYCAGGYSGNRYVFGGGTEVVVK
Turning to B1, in the assay with His-HPV16 E7重组蛋白 (HPV16) [1], the OD值 was more than 1 OD.

B2: HPV16 E7单链抗体scFv001 (scFv, V domains shown)
VH: QSLEESGGRLVTPGTPLTLTCTASGSDISSYAISWVRQAPGKGLEWIGSISNSGNTYYASWAKGRFTIAKTSTTVTLKMTSLTTADTATYFCTRGAISGTPIWGPGTLVTVSS
VL: DPMLTQTASSVSAAVGGTVTISCQSSQSVYDNNWLGWYQQKPGQPPKLLIYSVSTLASGVPSRFKGSGSGTQFTLTISDLECDDAATYYCAGGFSGNIYTFGGGTNVEIK
As to B2, in the assay with His-HPV16 E7重组蛋白 (HPV16) [2], the OD值 is more than 2 OD.

B3: HPV16 E7兔单克隆抗体RAB-001 (antibody, V domains shown)
VH: QSLEESGGRLVTPGTPLTLTCTASGSDISSYAISWVRQAPGKGLEWIGSISNSGNTYYASWAKGRFTIAKTSTTVTLKMTSLTTADTATYFCTRGAISGTPIWGPGTLVTVSS
VL: DPMLTQTASSVSAAVGGTVTISCQSSQSVYDNNWLGWYQQKPGQPPKLLIYSVSTLASGVPSRFKGSGSGTQFTLTISDLECDDAATYYCAGGFSGNIYTFGGGTNVEIK
notes: also called RAB-01; anti-HPV16 E7单抗RAB-001
Consider B3, for which the binding result with His-Vac is listed as “no binding (tested: antibody 1μg/ml, peptide coat 2μg/ml)”; in assay [3] it was “binds”; in assay [4], “binds”; in the assay with His-HPV18 E7重组蛋白, “binds”. The OD值 in the assay with His-HPV16 E7重组蛋白 (HPV16) [1] is more than 1 OD.
